Data on 14 proteins can be found in PMC6625726, “A polymorphic helix of a Salmonella needle protein relays signals defining distinct steps in type III secretion” (PLoS Biology, 2019).

Data set [1] concerns the molecule itself. The experiment in a line: in vitro polymerization seen by negative-stain electron microscopy; His-tag cleaved with thrombin; concentrated to approximately 1 mg/ml in 20 mM MES, pH 5.5, overnight at room temperature; 2% phosphotungstic acid stain.
Data set [2] deals with the molecule itself. The experiment in a line: cryo-EM structure; needle filaments boxed out from fully assembled needle complexes isolated by affinity chromatography (in vivo assembled, attached to the base); helical reconstruction.
Data set [3] concerns the molecule itself. The experiment in a line: cryo-EM structure; filaments polymerized in vitro from purified protein, sonicated; helical reconstruction.
Data set [4] deals with the molecule itself. Briefly: solid-state NMR of filaments; magic-angle spinning, 800 MHz, 11 kHz, approximately 278 K; 13C-detected 1D and 2D spectra of needle filaments.

Changes are numbered by the printed parent chain. Names may count otherwise.

B1: PrgI, wild type, recombinant (natural protein)
chain: MATPWSGYLDDVSAKFDTGVDNLQTQVTEALDKLAAKPSDPALLAAYQSKLSEYNLYRNAQSNTVKVFKDIDAAIIQNFR
notes: needle filament protein PrgI of the SPI-1 T3SS, 80 amino acids; pET15b, thrombin-cleavable tag; polymerised in vitro into filaments; also called PrgI^WT; WT PrgI; not shown: His6, N-terminal, cleaved
For B1, the binding result in data set [1] is “binds”.

B2: PrgI^L56A, recombinant (natural protein, Salmonella enterica serovar Typhimurium, UniProt P41784 1-80, looked up)
chain: B1 chain with L56A
notes: needle filament protein PrgI of the SPI-1 T3SS, 80 amino acids; not shown: His6, N-terminal, cleaved
B2: the binding result in data set [1] is listed as “binds”.

B3: PrgI, wild type, in S. Typhimurium (natural protein)
chain: B1 chain
notes: needle filament protein PrgI of the SPI-1 T3SS, 80 amino acids; assembled in vivo into the needle filament of the injectisome; also called WT PrgI; needle filament; source: S. Typhimurium ΔprgI ΔprgJ, from the low-copy plasmid pWSK29 (with prgJ); or chromosomal in wild-type and ΔsipD strains
On to B3, for which, in data set [2], the binding result is on record as “binds”.

B4: PrgI^S49A, recombinant (natural protein, Salmonella enterica serovar Typhimurium, UniProt P41784 1-80, looked up)
chain: B1 chain with S49A
notes: as for B2
As to B4, the binding result in data set [3] is “binds”.

B5: PrgI^F16A, recombinant (natural protein, Salmonella enterica serovar Typhimurium, UniProt P41784 1-80, looked up)
chain: B1 chain with F16A
notes: as for B2
As for B5, the binding result in data set [1] is reported as “binds”.

B6: PrgI^D70K, recombinant (natural protein, Salmonella enterica serovar Typhimurium, UniProt P41784 1-80, looked up)
chain: B1 chain with D70K
notes: as for B2
For the protein B6, the binding result in data set [1] is given as “binds”.

B7: PrgI^Q77R, recombinant (natural protein, Salmonella enterica serovar Typhimurium, UniProt P41784 1-80, looked up)
chain: B1 chain with Q77R
notes: needle filament protein PrgI of the SPI-1 T3SS, 80 amino acids; used for solid-state NMR; not shown: His6, N-terminal, cleaved
Take B7: the binding result in data set [4] is “binds”.

B8: PrgI^V20A, recombinant (natural protein, Salmonella enterica serovar Typhimurium, UniProt P41784 1-80, looked up)
chain: B1 chain with V20A
notes: as for B7
Consider B8, for which the binding result in data set [4] is “binds”.

B9: PrgI^L9A, recombinant (natural protein, Salmonella enterica serovar Typhimurium, UniProt P41784 1-80, looked up)
chain: B1 chain with L9A
notes: as for B2
For the protein B9, the binding result in data set [1] is given as “binds”.

B10: PrgI^L31A, recombinant (natural protein, Salmonella enterica serovar Typhimurium, UniProt P41784 1-80, looked up)
chain: B1 chain with L31A
notes: as for B2
Turning to B10, the binding result in data set [1] is recorded as “binds”.

B11: PrgI^K66E, recombinant (natural protein, Salmonella enterica serovar Typhimurium, UniProt P41784 1-80, looked up)
chain: B1 chain with K66E
notes: as for B2
On to B11, for which the binding result in data set [1] was “binds”.

B12: PrgI^V67A, recombinant (natural protein, Salmonella enterica serovar Typhimurium, UniProt P41784 1-80, looked up)
chain: B1 chain with V67A
notes: as for B2
B12: in data set [3], the binding result is “binds”.

B13: PrgI^R58A, recombinant (natural protein, Salmonella enterica serovar Typhimurium, UniProt P41784 1-80, looked up)
chain: B1 chain with R58A
notes: as for B7
For the protein B13, the binding result in data set [4] is on record as “binds”.

B14: PrgI^T3A, recombinant (natural protein, Salmonella enterica serovar Typhimurium, UniProt P41784 1-80, looked up)
chain: B1 chain with T3A
notes: as for B2
As for B14, the binding result in data set [1] was “binds”.
